System: human HL60 cells
Experiment: SWATH-MS proteomics, differential protein representation, akirin2 KO vs WT HL60 cells
Format: cell-based
Conditions: akirin2 KO vs WT HL60 cells; sheet "Under-represented in KO"
Summary of the method: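 Read-out is label-free SWATH-MS protein area, globally normalized to total detected-protein area, with identifications held at 1% FDR against a library from information-dependent acquisition.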

B1: sp¦Q9GZY6¦NTAL_HUMAN (protein, UniProt Q9GZY6 1-243, looked up)
Linker for activation of …: MSSGTELLWPGAALLVLLGVAASLCVRCSRPGAKRSEKIYQQRSLREDQQSFTGSRTYSLVGQAWPGPLADMAPTRKDKLLQFYPSLEDPASSRYQNFSKGSRHGSEEAYIDPIAMEYYNWGRFSKPPEDDDANSYENVLICKQKTTETGAQQEGIGGLCRGDLSLSLALKTGPTSGLCPSASPEEDEESEDYQNSASIHQWRESRKVMGQLQREASPGPVGSPDEEDGEPDYVNGEVAATEA
- Fold Change: 0.3739
- Log (Fold Change): -0.4273

B2: sp¦P63151¦2ABA_HUMAN (protein, UniProt P63151 2-447, looked up)
Serine/threonine-protein …: AGAGGGNDIQWCFSQVKGAVDDDVAEADIISTVEFNHSGELLATGDKGGRVVIFQQEQENKIQSHSRGEYNVYSTFQSHEPEFDYLKSLEIEEKINKIRWLPQKNAAQFLLSTNDKTIKLWKISERDKRPEGYNLKEEDGRYRDPTTVTTLRVPVFRPMDLMVEASPRRIFANAHTYHINSISINSDYETYLSADDLRINLWHLEITDRSFNIVDIKPANMEELTEVITAAEFHPNSCNTFVYSSSKGTIRLCDMRASALCDRHSKLFEEPEDPSNRSFFSEIISSISDVKFSHSGRYMMTRDYLSVKIWDLNMENRPVETYQVHEYLRSKLCSLYENDCIFDKFECCWNGSDSVVMTGSYNNFFRMFDRNTKRDITLEASRENNKPRTVLKPRKVCASGKRKKDEISVDSLDFNKKILHTAWHPKENIIAVATTNNLYIFQDKVN
- Fold Change: 0.3625
- Log (Fold Change): -0.4407

B3: sp¦P00387¦NB5R3_HUMAN (protein, UniProt P00387 2-301, looked up)
NADH-cytochrome b5 reductase 3: GAQLSTLGHMVLFPVWFLYSLLMKLFQRSTPAITLESPDIKYPLRLIDREIISHDTRRFRFALPSPQHILGLPVGQHIYLSARIDGNLVVRPYTPISSDDDKGFVDLVIKVYFKDTHPKFPAGGKMSQYLESMQIGDTIEFRGPSGLLVYQGKGKFAIRPDKKSNPIIRTVKSVGMIAGGTGITPMLQVIRAIMKDPDDHTVCHLLFANQTEKDILLRPELEELRNKHSARFKLWYTLDRAPEAWDYGQGFVNEEMIRDHLPPPEEEPLVLMCGPPPMIQYACLPNLDHVGHPTERCFVF
- Fold Change: 0.3747
- Log (Fold Change): -0.4263

B4: sp¦Q16822¦PCKGM_HUMAN (protein, UniProt Q16822 33-640, looked up)
Phosphoenolpyruvate …: LSGDLGQLPTGIRDFVEHSARLCQPEGIHICDGTEAENTATLTLLEQQGLIRKLPKYNNCWLARTDPKDVARVESKTVIVTPSQRDTVPLPPGGARGQLGNWMSPADFQRAVDERFPGCMQGRTMYVLPFSMGPVGSPLSRIGVQLTDSAYVVASMRIMTRLGTPVLQALGDGDFVKCLHSVGQPLTGQGEPVSQWPCNPEKTLIGHVPDQREIISFGSGYGGNSLLGKKCFALRIASRLARDEGWLAEHMLILGITSPAGKKRYVAAAFPSACGKTNLAMMRPALPGWKVECVGDDIAWMRFDSEGRLRAINPENGFFGVAPGTSATTNPNAMATIQSNTIFTNVAETSDGGVYWEGIDQPLPPGVTVTSWLGKPWKPGDKEPCAHPNSRFCAPARQCPIMDPAWEAPEGVPIDAIIFGGRRPKGVPLVYEAFNWRHGVFVGSAMRSESTAAAEHKGKIIMHDPFAMRPFFGYNFGHYLEHWLSMEGRKGAQLPRIFHVNWFRRDEAGHFLWPGFGENARVLDWICRRLEGEDSARETPIGLVPKEGALDLSGLRAIDTTQLFSLPKDFWEQEVRDIRSYLTEQVNQDLPKEVLAELEALERRVHKM
- Fold Change: 0.1415
- Log (Fold Change): -0.8493
